Measurements as given in PMC10814857 (2024).

Columns and labels:
Assay in all cases: FP
[1] = molecular target: P9, fluorescein-labelled proline-rich peptide from the SOS1 proline-rich domain (human, UniProt Q07889, fluorescein (FITC) label, position not stated)
[2] = molecular target: RP2, fluorescein-labelled reference peptide from the N-terminal extension of the RHO GTPase WRCH1/RHOU (human, UniProt Q7L0Q8, fluorescein (FITC) label, position not stated)
[3] = molecular target: P7, fluorescein-labelled proline-rich peptide from the SOS1 proline-rich domain (human, UniProt Q07889, fluorescein (FITC) label, position not stated)
[4] = molecular target: P4, fluorescein-labelled proline-rich peptide from the SOS1 proline-rich domain (human, UniProt Q07889, fluorescein (FITC) label, position not stated)
[5] = molecular target: RP1, fluorescein-labelled reference peptide, a SOS1 derivative encompassing part of P3 (human, UniProt Q07889, fluorescein (FITC) label, position not stated)
[6] = molecular target: P3, fluorescein-labelled proline-rich peptide from the SOS1 proline-rich domain (human, UniProt Q07889, fluorescein (FITC) label, position not stated)
[7] = molecular target: P2, fluorescein-labelled proline-rich peptide from the SOS1 proline-rich domain (human, UniProt Q07889, fluorescein (FITC) label, position not stated)

B1: BIN1 SH3 domain, GST cleaved (domain or fragment)
chain: GFMFKVQAQHDYTATDTDELQLKAGDVVLVIPFQNPEEQDEGWLMGVKESDWNQHKELEKCRGVFPENFTERVP
Question: With B1 as the binder, how does the Kd [1] read?
Answer: The Kd was 47 µM.

Question: What about the Kd [2] of the same binder?
Answer: Its Kd is 48 µM.

Question: What about the Kd [3] of the same binder?
Answer: The Kd was 12 µM.

B2: DLG2 SH3 domain, GST cleaved (domain or fragment)
chain: KRSLYVRAMFDYDKSKDSGLPSQGLSFKYGDILHVINASDDEWWQARRVMLEGDSEEMGVIPSKRRVERKE
Question: Which Kd [3] does the source give for B2 here?
Answer: The Kd was 58.5 µM.

B3: ABL2 SH3 domain, GST cleaved (domain or fragment)
chain: SDPNLFVALYDFVASGDNTLSITKGEKLRVLGYNQNGEWSEVRSKNGQGWVPSNYITPVNS
Question: How did the Kd [4] turn out when B3 was run?
Answer: Its Kd is 125 µM.

Question: What about the Kd [5] of the same binder?
Answer: The Kd was 11 µM.

Question: What about the Kd [3] of the same binder?
Answer: Its Kd is 67.3 µM.

B4: ARHGAP12 SH3 domain, GST cleaved (domain or fragment)
chain: PGQVYIEVEYDYEYEAKDRKIVIKQGERYILVKKTNDDWWQVKPDENSKAFYVPAQYVKEVTR
Question: With B4 as the binder, how does the Kd [6] read?
Answer: The Kd was 13.8 µM.

Question: What about the Kd [5] of the same binder?
Answer: The Kd was 16.7 µM.

Question: And the Kd [2]?
Answer: The Kd was 15.5 µM.

B5: ABI1 SH3 domain, GST cleaved (domain or fragment)
chain: NYIEKVVAIYDYTKDKDDELSFMEGAIIYVIKKNDDGWYEGVCNRVTGLFPGNYVESIMH
Question: Which results are given for B5?
Answer: Kd [4]: 24.6 µM; Kd [7]: 60.7 µM

B6: ARHGEF30 (Obscurin/OBSCN) SH3 domain, GST cleaved (domain or fragment)
chain: EIFDIYVVTADYLPLGAEQDAITLREGQYVEVLDAAHPLRWLVRTKPTKSSPSRQGWVSPAYLDRRLK
Question: With B6 as the binder, how does the Kd [3] read?
Answer: Its Kd is 8.9 µM.

B7: NCK1-3, third SH3 domain of NCK1, GST cleaved (domain or fragment)
chain: QVLHVVQALYPFSSSNDEELNFEKGDVMDVIEKPENDPEWWKCRKINGMVGLVPKNYVTVMQN
Question: With B7 as the binder, how does the Kd [5] read?
Answer: Its Kd is 24.6 µM.

Question: What about the Kd [2] of the same binder?
Answer: The Kd was 2.5 µM.

B8: NCK1-2 SH3 domain, GST cleaved (domain or fragment)
chain: DLNMPAYVKFNYMAEREDELSLIKGTKVIVMEKCSDGWWRGSYNGQVGWFPSNYVTEEGD
Question: B8 was tested. Which Kd [5] did it give?
Answer: Its Kd is 2 µM.
